Source: the supplement of paper PMC9112550, “Optimization of the antimicrobial peptide Bac7 by deep mutational scanning” (BMC Biology, 2022)

Test system: Escherichia coli TOP10
Assay: shrunken log2 fold change of peptide-encoding DNA abundance (4.5 h post-induction vs induction); higher = less antimicrobial activity (less host growth inhibition)
Settings: time post-induction: 4.5 h; library: site-saturation at positions 5, 18, 19, 20
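Also: peptides expressed intracellularly from a pBAD plasmid library in pooled LB shake-flask culture, induced with 0.3% L-arabinose, DNA abundance read by NGS, three biological replicates, DESeq2 with apeglm shrinkage.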

Row | Sequence | shrunken log2 fold change
1 | RRIRRRPPRLPRPRPRPYRKPRP | 0.0779
2 | RRIRRRPPRLPRPRPRPYSEPRP | -0.154
3 | RRIRRRPPRLPRPRPRPYTIPRP | -0.566
4 | RRIRRRPPRLPRPRPRPYTMPRP | -0.255
5 | RRIRRRPPRLPRPRPRPYVIPRP | 0.0475
6 | RRIRRRPPRLPRPRPRPYWKPRP | 0.0393
7 | RRIRSRPPRLPRPRPRPAAIPRP | 2.36
8 | RRIRSRPPRLPRPRPRPAASPRP | -0.0449
9 | RRIRSRPPRLPRPRPRPAEAPRP | 0.429
10 | RRIRSRPPRLPRPRPRPAELPRP | 0.0682
11 | RRIRSRPPRLPRPRPRPAEVPRP | -0.0708
12 | RRIRSRPPRLPRPRPRPAFQPRP | -0.0696
13 | RRIRSRPPRLPRPRPRPAFRPRP | 0.452
14 | RRIRSRPPRLPRPRPRPAGGPRP | 0.529
15 | RRIRSRPPRLPRPRPRPAHSPRP | -0.332
16 | RRIRSRPPRLPRPRPRPAIMPRP | -0.152
17 | RRIRSRPPRLPRPRPRPAMGPRP | 0.313
18 | RRIRSRPPRLPRPRPRPANFPRP | 0.0977
19 | RRIRSRPPRLPRPRPRPAQTPRP | 0.0615
20 | RRIRSRPPRLPRPRPRPARNPRP | 0.611
21 | RRIRSRPPRLPRPRPRPASKPRP | 0.019
22 | RRIRSRPPRLPRPRPRPASSPRP | -0.201
23 | RRIRSRPPRLPRPRPRPATFPRP | -0.366
24 | RRIRSRPPRLPRPRPRPAVAPRP | 0.0474
25 | RRIRSRPPRLPRPRPRPAVLPRP | -0.355

Row | Sequence | shrunken log2 fold change
26 | RRIRSRPPRLPRPRPRPAWDPRP | 0.281
27 | RRIRSRPPRLPRPRPRPAWVPRP | 0.441
28 | RRIRSRPPRLPRPRPRPAYRPRP | -0.154
29 | RRIRSRPPRLPRPRPRPCAFPRP | -0.236
30 | RRIRSRPPRLPRPRPRPCANPRP | -0.113
31 | RRIRSRPPRLPRPRPRPCCEPRP | -0.22
32 | RRIRSRPPRLPRPRPRPCEAPRP | 0.389
33 | RRIRSRPPRLPRPRPRPCFNPRP | -0.828
34 | RRIRSRPPRLPRPRPRPCGKPRP | 0.027
35 | RRIRSRPPRLPRPRPRPCGSPRP | 0.102
36 | RRIRSRPPRLPRPRPRPCGVPRP | 0.0491
37 | RRIRSRPPRLPRPRPRPCIQPRP | -0.175
38 | RRIRSRPPRLPRPRPRPCKLPRP | -0.218
39 | RRIRSRPPRLPRPRPRPCKRPRP | -0.326
40 | RRIRSRPPRLPRPRPRPCLVPRP | -0.379
41 | RRIRSRPPRLPRPRPRPCMIPRP | -0.389
42 | RRIRSRPPRLPRPRPRPCMYPRP | -0.0328
43 | RRIRSRPPRLPRPRPRPCNPPRP | -0.212
44 | RRIRSRPPRLPRPRPRPCQLPRP | -0.163
45 | RRIRSRPPRLPRPRPRPCSSPRP | -0.134
46 | RRIRSRPPRLPRPRPRPCTDPRP | -0.11
47 | RRIRSRPPRLPRPRPRPCWAPRP | 0.143
48 | RRIRSRPPRLPRPRPRPCWGPRP | 0.109
49 | RRIRSRPPRLPRPRPRPDCIPRP | -0.163
50 | RRIRSRPPRLPRPRPRPDCLPRP | -0.11

Row | Sequence | shrunken log2 fold change
51 | RRIRSRPPRLPRPRPRPDDVPRP | 0.14
52 | RRIRSRPPRLPRPRPRPDEDPRP | -0.00181
53 | RRIRSRPPRLPRPRPRPDEGPRP | 0.0432
54 | RRIRSRPPRLPRPRPRPDEWPRP | -0.00195
55 | RRIRSRPPRLPRPRPRPDFFPRP | -0.0547
56 | RRIRSRPPRLPRPRPRPDHWPRP | -0.0678
57 | RRIRSRPPRLPRPRPRPDIDPRP | -0.15
58 | RRIRSRPPRLPRPRPRPDIFPRP | -0.135
59 | RRIRSRPPRLPRPRPRPDKDPRP | -0.102
60 | RRIRSRPPRLPRPRPRPDLHPRP | -0.0732
61 | RRIRSRPPRLPRPRPRPDLKPRP | -0.00372
62 | RRIRSRPPRLPRPRPRPDNCPRP | -0.103
63 | RRIRSRPPRLPRPRPRPDNFPRP | -0.299
64 | RRIRSRPPRLPRPRPRPDNMPRP | -0.208
65 | RRIRSRPPRLPRPRPRPDNQPRP | -0.568
66 | RRIRSRPPRLPRPRPRPDNSPRP | -0.13
67 | RRIRSRPPRLPRPRPRPDPMPRP | -0.0673
68 | RRIRSRPPRLPRPRPRPDPNPRP | -0.000549
69 | RRIRSRPPRLPRPRPRPDPWPRP | 0.0152
70 | RRIRSRPPRLPRPRPRPDQHPRP | -0.0484
71 | RRIRSRPPRLPRPRPRPDRAPRP | 0.611
72 | RRIRSRPPRLPRPRPRPDSFPRP | -0.0457
73 | RRIRSRPPRLPRPRPRPDSMPRP | -0.339
74 | RRIRSRPPRLPRPRPRPDSSPRP | -0.418
75 | RRIRSRPPRLPRPRPRPDVVPRP | -0.448
